From the domain aggregation screens of Martell et al. (2025)

Assay: soluble fraction after stress (log2 fold change); higher = more stays soluble; pooled small domains, quantitative proteomics
Details: stress: 50 degC
Procedure, shortened: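 After stress at 50°C, the amount of each protein still soluble was measured. This was done on pooled custom libraries of small protein domains, using high-throughput quantitative proteomics. The figure given is a base-two log fold change and stands for aggregation propensity, with higher values meaning more protein stays in solution.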

Sequence	soluble fraction (log2)
HMAKIEVENLEETILENLKANNGFMPYNDKTSPEEIYEVFHVSKKHFKNSLGGLMKKGLIFQNEKGTKL	-0.0312
HMEALTPREREVLTLMGQGRSNAEIATLLSIAPRTAKVHVQNILSKLGATNRTEAVSLAVRQGLIS	0.301
HMKQDYYSILGVMRDASQEEIKRAYLDAAQRLHPDRNTSAGDTEMFLDVQQAYEVLSNPKRRAQYDATLP	0.148
HMGSEYPSNPLASRWAKGVRLYHDEWGYGVIQAARGSEPDDYVITVRFESGAEKSFLPKFQAHSLMIVKD	-0.161
HMELNESVLKALYEKFREMSGSKGFITEDEVIIQLEKENPDITPDQQAEIFKYLYDTPLQIY	-0.127
HMLNDKLQTLFSLFPAVDKDLKKKGVTRQILWEQYKRNHPDGVGRSQFNYYYAQWKDQVNPT	-1.47
HMSYPFSEDALKEKIREYLKHNRSINRKVLEAEFHIRKQTALNWLKKLEKSGFLIKEGSRNAPVYFLAE	-0.832
HMEVLEGFIEDIKFKSEESGYTVAKLNNRNKSIVIVGTMPFISEGQHVKLTGEWKIHQKFGAQFNVKELEE	-0.347
HMTQEHDESVNLGKRLLDQALSRFGTSYRQLKKSEIKRILQSSGASTFKYILHQIGLGNRVPLAIANLIV	-0.0734
HMPVTAQFDFSKVLAGRTLKDGEFSFVLKDKNGTVLQTKTNDASGKVAFDALIYKNNEVGEHKYTVEEVI	0.208
HMVDTSDLPAIVEKVFADNPEQVNDILNGKDRVKGFLVGQIMKATRGQAPPDEVNKLIDATLEKMKAA	0.0819
HMRRKNQVQSSYQKRENGTYTVRFFLSDDMGSIMDLQLMATREDMARALRERFLKDPEKIYGQIMQMLLR	-0.255
HMENEIVMPVQINGKKRGDLTIARDADQASIQKAVLELDFVKAALNGGSPKKVIVVPQRIVNVV	0.325
HMSLEDYVIIKNKTVKVYETEFDGAPVVTSSSVGQKLILVEYNDNFAKILYRAKDGLDYVGYIKRKDVYVR	-2.4
HMQEKQIIDGREFYIHQVERGITLYSIAKQYNVKVADIQAENPFLEAGLQPGQTLKIPLDKVETVQEIK	0.125
HMDKVSYALGLGIGRQLTDMGAKDLNIDDFAQAIKDVLAGGEVKLSDAEAQTIVRNFFDEQEKKQRA	-0.0034
HMESRDRVRQASAAGYRFMSTMAGHEPGFEEASRALFAGDQTAFEARITAWPVDVQTHLKKILAEAFTT	-0.734
HMQLGEEAGDELVAIVRSVINDNDKALADYLAGKSSALKFLLGQVMRQTKGRADHALVQSLLEAELEAL	-0.169
HMRAGALTTLTERERNVFDLVVTGHSNPEIARQLSIADVTVKTHVGHILSKLGVRDRVHLVIWAHRQGLAD	-2.61
HMLPLLEYLDPFTGKKTYTYLNPDTQHPIFTYYSYQDDKTGRTAYSYIDPLTGKAVNSDEPPMDILYD	-0.441
HMEFTFTLPRGYIDDTGMIHREGTMRLANAADEILPLKDPRVQQNPGYLTIILLARVITKLGSL	0.277
HMETIGKRVRAARQELGLTMKQLHEQTGLSTGNISDIENDRNTPSVSSLVALGRALRRSLDWLLTGEE	-0.252
HMKTITVEDEQAGKRLDKALAELFPHYSRSALEKLIKEGQVLVNKSFVKSKYSLKLGDEISLQFEQL	0.173
HMQKTIDWSQVDKEQYLSAMERSPVNDLEIKAILAKALTSDINNRELFMKGLDHSYYFEGYQLFKSE	-0.281
HMNHLLYPNPANNFIWIKNSTSNTAVIYNLQGVMSKVEVSEEGKIDISRFSPGLYMIKQGERIYKFTIA	-1.34
HMDTYDSIDSILEERHLSRRKLAQAIGLPPSTFQSMMSRKSGMTLEVLMKIVSYLQVSPDAFW	-2.12
HMKNLTEVEYSEFLESIAQDRVSKVQVDGLIIRGEMNDGQRFETVQPQVTDKALIDDMVNHRVDFSGARP	0.0951
HMSPPVIQQGQDVRLIYKGTGFAVSNEGKALNTAADGQVARARTGGGQTVSGIARPGGIIEIT	0.308

Sequence	soluble fraction (log2)
HMIKKAILPVAGLGTRFLPASKSIPKEMVTVVDRPAIEYVVREAVEAGIEQIILVTHSSKASIENYFDR	-0.187
HMQGTTTELLIQKSALYEELNDPEKALNAMFDAFEMDSLNVNVLHRIVSLLLDKEENEKAILYNQLIIDH	0.126
HMVSKEELANSIYENKTADELGNIVLRKGKYSGEMLRTIYVKDIGYLEWHSKQSYEYSNAVKWYLKKLE	-1.21
HMLKETGVITASVLNVREDIGTSSNIVAQLKKGMEVNILESRAIAGSETWYRIDAGSIKGWIFGDYI	-3.62
HMIPDLPAVGVNVHKERRRQQLSLDALAAGSGVSKAMLSQIESGKVNPTVATMWKIAHALGVDFELLLKGE	-0.154
HMPDRQKDIQNWQQIAETLLNMLDKYVAALETGKTGLAEAYKAIFAETLRRLDDRLDPEQFLP	-1.54
HMETVRLSVDAQGAYYWNEQRVDDSALPDLLREASGRKPQPDLHIRGDKAVRYERVAEAMAAAQRAGLKKI	0.0588
HMATVNIGNLTFTHKGDYASGTTYAKNDVVYYSTNGNAYIAKQATQGNAPTSTAHWDVFAAGSGG	-0.161
HMKEKQLMTLDDDLYAFLLKHPGIIQKDIYNHFPYDIKGVIADTLYAWDKTGKIKRTKSGNSYIIYT	-0.0536
HMERPSLDQVLAHAKALGIAPARFVAYADGRWGTGWRLSPHGRARAWEELDRHRNDPLGYRDKLDVALQSG	-0.0254
HMKRLPMRKIRDVLRLSADGLSTRKIGVSLTIGRTTVQAYLDRAAEVDLSWPLPPEMSDTDLERLIYPR	-3.39
HMATARPPPPPESRVEVLFDGRWYAGTVVGGALDEHRATVFFDADRLSQVINFAETGIRVLGT	-0.0673
HMNDLIKMPYLVGQLYDDVASNQEYADFQFKITEGNDPDKQPGEIMKQDPAADIMVKKNAEVELLVNG	0.247
HMGVEVEVPNVKGKLVADAEYELGLAQLTPVRTDSAYNRNLPPGTVLEQLPASGSHVKEGREIYLTINST	0.264
HMKGVENLSDIDIQKALNNARANLSKNKAKLEQAGDDEKKKASALAMIQKWETTKKAIEEEIEARKKKSLN	-0.296
HMYYDDEELDDYRGKASDAYTAAEVEQFEEVLTTMRPEEVHGWLRSLQLRGVALPDALKDEAYMIVSEQAE	-0.252
HMGSDLVAWAQTRIGRHPEEAADVIAALIDRHGEARVRAASRSLLARKFAHASDLRTAIDAAIG	-0.0161
HMGESYQIKDGELLVDIAQRVKPAGMTLRQTINALVAANPRAFRNGNPDLMYRGATLTIPDGDTLRRLAH	0.131
HMRYWVKSETDFLIENRGKYSYQEFADMLGRSYAVVYDKMHQLKIDYTKEELEIFDEKHKAQMREKQQR	-1.52
HMGSNRPLALGDVVRIEGSKTLGTILELNAKDAVVALGALKTTLPLSRIHHASSQESQRLKRQATQAPLR	0.123
HMSVKLYPNPTRSVTTFATDVDKWYLYDNQGKLVSEGNTKTIDVTAFPVGIYFVKTIKGNNSTFVKLIV	-1.4
HMVSLSENQKIVLESLNTAMSARELMEILNLSDISHFRRNILNPLLLEGLIVRTKPDKPKSSKQKYIKANF	-1.15
HMAKKDVESTLGGRLRVARVRAGLTQVELARMLGMNSVSLSNVEGGRRGLSMKQLVRVAKILEVPVAYLLG	-1.65
HMLLTPLEETRLVIEEIVIPQKLTIDLLPRSSAIRKLQHELITHYQLRGTSVGNEPNRRLRIYP	-0.244
HMALKQADFDFIRQMIQQRAAIVLDDNKHYFVESRLGPVVEETGSKSLDQLIDQLRSSSNSLLQQKVTEAI	-0.199
HMSTISPNAFNFLQQNLNKFSDDAEGKMIKDILSKTTYDEYVKNEKSKTDFNSLLRRQTTTGDDNLNRYIN	0.0247
HMARAPIYPDGLTQREVEVLSLVAAGKTDREIAEELFIALRTVTTHVGNILNKIGAANRTEAAGYATRQGL	-0.459
